According to patent publication US20150284431A1:
Square brackets hold non-standard residues; d marks the D form. * marks the point of attachment. Butanoyl(4-Ph) = O=C(CCCc1ccccc1)*; Butanoyl(4-ethynyl) = C#CCCCC(=O)*

B1: 4-targeted triblock polymer (peptide, part only; not given: triblock polymer, part only)
peptide: HFRWGK
modifications: N-terminal 4-phenylbutyryl; DPhe at 2; Lys(hex-5-ynoyl) at 6 joined by a 1,2,3-triazole (click reaction) to the azide end of the PEG block of the triblock polymer; C-terminal amide
B2: 4-targeted micelles (peptide, part only; not given: triblock polymer carrier, part only)
peptide: HFRWGK
modifications: not fully specified; N-terminal 4-phenylbutyryl; DPhe at 2; Lys(hex-5-ynoyl) at 6 joined by a 1,2,3-triazole to the PEG block of the triblock polymer; C-terminal amide
B3: 4-targeted crosslinked (XL) micelle (peptide, part only; not given: crosslinked triblock polymer carrier, part only)
peptide: {Butanoyl(4-Ph)}-H[dF]RWGK(Butanoyl(4-ethynyl))-NH2
modifications: also: micelle crosslinked with Fe(III), triblock polymer block lengths not given here

What was measured:
[1] = biological target: human melanocortin 1 receptor (human) (UniProt Q01726); assay: competition with Eu-NDP-alpha-MSH, Eu time-resolved fluorescence, HCT116/hMC1R cells; concentration normalized to the targeting group
[2] = biological target: human melanocortin 1 receptor (human) (UniProt Q01726); assay: competition with Eu-NDP-alpha-MSH, time-resolved fluorescence; 10% ligand loading

Sequence of human melanocortin 1 receptor (human) (Q01726 whole entry): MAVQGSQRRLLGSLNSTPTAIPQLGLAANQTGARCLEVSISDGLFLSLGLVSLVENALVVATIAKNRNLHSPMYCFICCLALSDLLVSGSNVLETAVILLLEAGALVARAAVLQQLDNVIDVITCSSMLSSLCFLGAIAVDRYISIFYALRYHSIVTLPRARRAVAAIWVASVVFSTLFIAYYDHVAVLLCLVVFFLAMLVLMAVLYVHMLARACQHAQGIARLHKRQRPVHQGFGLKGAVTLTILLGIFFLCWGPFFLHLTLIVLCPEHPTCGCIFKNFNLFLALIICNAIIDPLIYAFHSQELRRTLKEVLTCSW

Binder | Ki [1] | Ki [2]
B1 | 25.6 nM | 
B2 | 11.5 nM | 
B3 |  | 2.9 nM
{Butanoyl(4-Ph)}-H[dF]RWGK(Butanoyl(4-ethynyl))-NH2 (peptide, part only; not given: triblock polymer carrier, part only, also: micelle not crosslinked, triblock polymer block lengths not given here) [4-targeted uncrosslinked (UXL) micelle] |  | 12 nM
